Test results: patent publication US20140011978A1 (EPFL TTO, published 2014)

Experiments:
FGF-5 = target: T1, FGF-5 (UniProt P12034 21-268, limits assumed); test: ELISA, cytokine coated, Fg β15-66 in solution (methods as Example 3)
T1 sequence (looked up): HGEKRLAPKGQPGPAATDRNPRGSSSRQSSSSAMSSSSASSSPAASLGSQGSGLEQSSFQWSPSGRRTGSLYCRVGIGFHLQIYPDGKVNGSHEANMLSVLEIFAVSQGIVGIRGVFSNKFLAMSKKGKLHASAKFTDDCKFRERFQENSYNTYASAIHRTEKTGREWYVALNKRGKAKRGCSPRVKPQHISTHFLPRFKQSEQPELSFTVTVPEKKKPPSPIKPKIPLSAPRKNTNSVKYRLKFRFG
Description: (§1) ELISA plates were coated with cytokines or BSA and further incubated with TNC III1-5 to analyze binding of TNC III1-5 to a wide variety of cytokines. […] A large amount of heparin (4 μM) impaired binding of TNC III1-5 to these cytokines. Results are depicted in FIG. 3. Method: 50 nM of cytokine was coated for (1 hr, 37° C.). After blocking with 2% BSA (1 hr, RT). 100 nM TNC III1-5 was applied in PBST (0.05% tween, 0.1% bovine serum albumin (BSA)) (1 hr, RT). TNC III1-5 was detected with horseradish peroxidase (HRP)-anti-HIS in PBST (1 hr, RT) and developed with 3,3′,5,5′-tetramethylbenzidine (TMB), a soluble colorimetric HRP […]. Addition of sulfuric acid stop solution changes the color to yellow, enabling accurate measurement of the intensity at 450 nm using a spectrophotometer or plate reader. […] Heparin (4 μM) was added to TNC III1-5 to test the effect of blocking the heparin binding site of TNC III1-5, which has been defined as domain TNC III5 (Weber, Zimmermann, et al., 1995).
(§2) ELISA plates were coated with cytokines or BSA and further incubated with Fg β15-66 to analyze binding of […] to a wide variety of cytokines. […] Results are depicted in FIG. 4. Method: The methods were analogous to those used in Example 3.

BMP-2/7 = target: T2, BMP-2/7 (UniProt P12643 283-396; P18075 293-431); test: as above
T2 construct: The name implies a BMP-2/BMP-7 heterodimer
T2 sequence (P12643 283-396, chain 1 of 2): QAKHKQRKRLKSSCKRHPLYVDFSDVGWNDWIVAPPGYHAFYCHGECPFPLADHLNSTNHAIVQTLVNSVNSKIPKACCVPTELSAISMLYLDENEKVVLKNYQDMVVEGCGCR
T2 sequence (P18075 293-431, chain 2 of 2): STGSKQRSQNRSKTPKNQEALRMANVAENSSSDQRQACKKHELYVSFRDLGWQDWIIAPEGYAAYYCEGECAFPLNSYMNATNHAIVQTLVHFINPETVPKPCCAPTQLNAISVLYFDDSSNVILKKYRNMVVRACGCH
Description: as §1, §2

PDGF-AB = target: T3, PDGF-AB (UniProt P04085 87-211; P01127 82-190, limits assumed); test: as above
T3 construct: The name implies a heterodimer of A and B chains
T3 sequence (P01127 82-190 limits assumed, chain 2 of 2, other chains not shown): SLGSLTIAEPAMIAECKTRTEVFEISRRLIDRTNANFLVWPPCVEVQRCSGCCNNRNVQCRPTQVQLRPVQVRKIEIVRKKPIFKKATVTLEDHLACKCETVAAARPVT
Description: as §1, §2

TGF-β2 = target: T4, TGF-β2 (UniProt P61812 303-414); test: ELISA: growth factor coated, Fg fragment in solution, A450 (methods analogous to Example 3)
T4 sequence (looked up): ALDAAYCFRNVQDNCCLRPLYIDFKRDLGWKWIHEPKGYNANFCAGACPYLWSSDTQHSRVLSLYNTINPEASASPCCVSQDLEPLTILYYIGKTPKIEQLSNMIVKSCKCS
Description: as §1, §2

FGF-6 = target: T5, FGF-6 (UniProt P10767 38-208, limits assumed); test: as above
T5 sequence (looked up): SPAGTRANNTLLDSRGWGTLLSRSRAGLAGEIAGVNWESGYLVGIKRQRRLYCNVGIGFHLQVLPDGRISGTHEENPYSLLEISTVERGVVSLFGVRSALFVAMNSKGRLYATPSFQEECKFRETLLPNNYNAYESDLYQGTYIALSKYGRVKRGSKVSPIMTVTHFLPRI
Description: as §1, §2

FGF-7 = target: T6, FGF-7 (UniProt P21781 32-194); test: as above
T6 sequence (looked up): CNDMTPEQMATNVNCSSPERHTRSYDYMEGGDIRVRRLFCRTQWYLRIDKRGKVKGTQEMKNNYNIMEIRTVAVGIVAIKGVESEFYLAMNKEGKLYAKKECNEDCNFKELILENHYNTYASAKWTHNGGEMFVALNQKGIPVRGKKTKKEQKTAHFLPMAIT
Description: as §1, §2

TGF-β3 = target: T7, TGF-β3 (Natural form is a disulfide-linked homodimer; one protomer is given.); test: as above
T7 chain: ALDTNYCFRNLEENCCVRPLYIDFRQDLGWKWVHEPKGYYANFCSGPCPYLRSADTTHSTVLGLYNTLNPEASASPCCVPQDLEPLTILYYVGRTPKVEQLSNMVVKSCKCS
Description: as §1, §2

PDGF-DD = PDGF-DD (UniProt Q9GZP0 250-370); test: as above
Chain of PDGF-DD (Q9GZP0 250-370): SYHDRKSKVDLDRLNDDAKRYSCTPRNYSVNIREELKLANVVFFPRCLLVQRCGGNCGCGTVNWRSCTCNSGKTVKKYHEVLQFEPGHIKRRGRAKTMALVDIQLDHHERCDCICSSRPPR
Description: as §1, §2

PDGF-BB = target: T8, PDGF-BB (UniProt P01127 82-190); test: as above
T8 construct: The name implies a homodimer of B chains
T8 sequence (P01127 82-190 limits assumed): as the sequence (P01127 82-190 limits assumed, chain 2 of 2, other chains not shown) above
Description: as §1, §2

BSA = target: T9, BSA (bovine, UniProt P02769); test: ELISA: BSA coated as control, Fg fragment in solution, A450 (methods analogous to Example 3)
T9 construct: negative control; also called bovine serum albumin
T9 sequence (P02769 25-607 limits assumed): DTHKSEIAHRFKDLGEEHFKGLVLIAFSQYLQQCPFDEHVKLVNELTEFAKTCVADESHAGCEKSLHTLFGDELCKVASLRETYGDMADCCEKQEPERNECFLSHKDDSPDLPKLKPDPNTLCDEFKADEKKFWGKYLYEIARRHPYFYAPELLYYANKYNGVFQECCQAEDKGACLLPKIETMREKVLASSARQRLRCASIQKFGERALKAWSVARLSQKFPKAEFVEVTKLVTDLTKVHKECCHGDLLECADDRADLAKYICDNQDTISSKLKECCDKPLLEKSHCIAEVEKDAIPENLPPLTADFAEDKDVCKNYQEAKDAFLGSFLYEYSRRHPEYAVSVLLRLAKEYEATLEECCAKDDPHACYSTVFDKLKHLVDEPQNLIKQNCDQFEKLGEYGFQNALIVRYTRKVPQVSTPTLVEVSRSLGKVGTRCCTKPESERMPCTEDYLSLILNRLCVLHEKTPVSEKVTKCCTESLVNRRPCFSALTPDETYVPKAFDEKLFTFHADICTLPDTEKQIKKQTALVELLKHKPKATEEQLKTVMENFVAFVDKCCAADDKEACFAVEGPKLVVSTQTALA
Description: as §1, §2

B1: Fg β15-66 (other)
chain: GSNQEQVSPLGHRPLDKKREEAPSLRPAPPPISGGGYRARPAKAAATQKKVERKAPDAGGCGHHHHHH
notes: Made as a GST fusion; GST was cleaved off; also called TG-Fg β15-66; fibrinogen β15-66 domain
B1: binds (FGF-5); binds (BMP-2/7); binds (PDGF-AB). B1: binds (TGF-β2); no binding (FGF-6); binds (FGF-7). B1: no binding (TGF-β3); binds (PDGF-DD); binds (PDGF-BB). B1: no binding (BSA).
